Source: US20040106173A1, “Bot1: target for antifungal agents” (The University of Miami, priority 2001, published 2004)

T1: HA-tagged Bot1p (HA3-bot1, pRep41-HA3bot1)
T1 chain: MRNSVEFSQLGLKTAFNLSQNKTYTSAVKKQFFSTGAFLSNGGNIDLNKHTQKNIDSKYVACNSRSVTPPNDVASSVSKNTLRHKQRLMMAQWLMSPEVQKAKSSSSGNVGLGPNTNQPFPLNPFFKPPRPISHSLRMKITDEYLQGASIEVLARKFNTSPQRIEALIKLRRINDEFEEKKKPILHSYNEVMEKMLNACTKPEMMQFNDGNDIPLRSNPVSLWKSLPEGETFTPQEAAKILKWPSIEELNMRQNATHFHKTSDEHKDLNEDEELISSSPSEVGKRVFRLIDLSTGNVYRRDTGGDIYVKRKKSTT

T2: HA-tagged Cdc23p (pRep41-HA3cdc23) (fission yeast, UniProt O42709 1-593)
T2 construct: also called HA-Cdc23p; HA-Cdc23
T2 sequence (looked up): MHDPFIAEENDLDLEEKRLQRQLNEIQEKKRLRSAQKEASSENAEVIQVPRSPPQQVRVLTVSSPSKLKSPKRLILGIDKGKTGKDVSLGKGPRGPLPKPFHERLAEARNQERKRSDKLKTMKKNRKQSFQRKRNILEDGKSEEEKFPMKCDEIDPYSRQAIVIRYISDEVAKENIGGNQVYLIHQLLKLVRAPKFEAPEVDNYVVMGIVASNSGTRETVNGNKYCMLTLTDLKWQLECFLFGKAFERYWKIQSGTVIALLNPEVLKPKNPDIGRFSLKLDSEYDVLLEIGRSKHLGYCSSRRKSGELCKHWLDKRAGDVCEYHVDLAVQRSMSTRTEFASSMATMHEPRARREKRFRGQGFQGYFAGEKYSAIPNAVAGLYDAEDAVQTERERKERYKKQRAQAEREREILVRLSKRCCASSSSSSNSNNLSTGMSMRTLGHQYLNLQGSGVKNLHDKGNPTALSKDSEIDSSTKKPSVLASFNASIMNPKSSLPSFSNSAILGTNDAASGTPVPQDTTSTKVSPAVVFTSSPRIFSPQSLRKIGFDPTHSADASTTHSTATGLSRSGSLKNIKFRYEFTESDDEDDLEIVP

T3: HA-tagged Tea1p (nmt1-HA3tea1) (Schizosaccharomyces pombe, UniProt P87061 1-1147)
T3 construct: also called HA-Tea1p
T3 sequence (looked up): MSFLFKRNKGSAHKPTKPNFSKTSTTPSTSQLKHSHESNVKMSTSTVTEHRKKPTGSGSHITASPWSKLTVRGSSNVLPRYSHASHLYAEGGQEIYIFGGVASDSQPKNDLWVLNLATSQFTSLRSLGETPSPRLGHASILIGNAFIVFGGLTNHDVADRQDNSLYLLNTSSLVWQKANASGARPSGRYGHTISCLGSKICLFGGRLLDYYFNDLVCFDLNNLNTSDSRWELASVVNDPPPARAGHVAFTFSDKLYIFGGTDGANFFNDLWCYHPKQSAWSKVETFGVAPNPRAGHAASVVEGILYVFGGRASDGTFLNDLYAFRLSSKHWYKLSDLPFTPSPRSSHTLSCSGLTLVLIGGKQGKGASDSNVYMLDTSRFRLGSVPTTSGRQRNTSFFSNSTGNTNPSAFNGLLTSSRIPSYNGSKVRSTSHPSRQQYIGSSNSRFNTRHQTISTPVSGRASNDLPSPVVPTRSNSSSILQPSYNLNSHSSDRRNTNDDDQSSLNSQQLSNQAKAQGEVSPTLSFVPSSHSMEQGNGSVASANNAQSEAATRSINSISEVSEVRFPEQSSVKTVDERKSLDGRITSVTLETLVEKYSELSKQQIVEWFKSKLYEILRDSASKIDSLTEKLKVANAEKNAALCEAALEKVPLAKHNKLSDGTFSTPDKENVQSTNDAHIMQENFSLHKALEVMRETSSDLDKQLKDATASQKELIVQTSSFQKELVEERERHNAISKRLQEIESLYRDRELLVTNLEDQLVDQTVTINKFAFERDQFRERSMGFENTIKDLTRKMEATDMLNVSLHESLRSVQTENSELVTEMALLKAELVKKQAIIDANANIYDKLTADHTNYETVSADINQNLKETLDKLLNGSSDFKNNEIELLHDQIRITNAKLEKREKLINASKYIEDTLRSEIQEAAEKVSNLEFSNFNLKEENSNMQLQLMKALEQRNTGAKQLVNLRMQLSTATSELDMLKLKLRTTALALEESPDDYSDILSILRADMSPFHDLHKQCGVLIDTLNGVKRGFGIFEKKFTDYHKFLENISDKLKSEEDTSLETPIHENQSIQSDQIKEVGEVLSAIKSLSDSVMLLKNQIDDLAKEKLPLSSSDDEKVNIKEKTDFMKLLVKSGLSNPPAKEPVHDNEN


Columns and labels:
[1] = target: Tea1p fused to the DNA binding domain of GAL4 (pAS1) (Schizosaccharomyces pombe, UniProt P04386 1-147; P87061 1-1147); test: yeast two-hybrid (HIS3 and LACZ reporters)
From the text: (§1) The tea1 gene was fused to the DNA binding domain of GAL4 in a plasmid (pAS1) carrying the trp1 marker. The orb6 gene was fused to the DNA binding domain of GAL4 (pAS1-orb6) and to the GAL4 activator domain (pACT2-orb6). The cDNA library was cloned to the transcription activator domain of GAL4 in a plasmid (pACT) carrying the leu2 marker. Plasmids pAS1, pACT2, pSE1111 (pACT-SNF4), pSE1112 (pAS1-SNF1), pAS1-p53, pAS1-lamin and the S. pombe library prepared in phage λ vectors and plasmids pAS1-SNF1 and pAS1-lamin, both harbored in Y187 strain, were kindly provided by Dr. S. Elledge. The test for cell growth on medium lacking histidine, the beta-galactosidase activation assay and the mating test to detect interaction specificity were performed as described (14). After screening 2×10⁶ transformants, we found five proteins that interact with Orb6p and four that interact with Tea1p in this system, and that were identified multiple times in the screen. Clones containing bot1+ were isolated 22 times in the Orb6p screen and eight times in the Tea1p screen. All clones contained the full-length bot1 sequence, although they usually lacked the initial ATG codon. For beta-galactosidase activation, three independent transformants were assayed for each condition.
(§2) To identify novel components of the Orb6p pathway, a two-hybrid screen was performed to identify cDNAs encoding proteins that interact with Orb6p. One of these, isolated 22 times in this screen, was a novel protein that we named Bot1p. […] The specificity of the positive interaction between Orb6p and Bot1p in the two-hybrid system was controlled by cotransformation of pAS1-orb6 and pACT-bot1 independently with a number of control plasmids. Co-expression of SNF1p or SNF4p was used as positive controls. Orb6p was unable to support the activation of the LACZ-GAL4 and HIS3-GAL4 promoters when co-expressed with GAL4 activation domain fused to SNF4p, or with the GAL4 activation domain (GAD) alone. Bot1p was unable to support the activation of the LACZ-GAL4 and HIS3-GAL4 promoters when co-expressed with the GAL4 binding domain fused to p53, Cdc23p, GAL4 DNA binding domain (GBD) alone, or fused to SNF1p or Cdt1p.

[2] = target: T4, Orb6p fused to the DNA binding domain of GAL4 (pAS1-orb6) (Schizosaccharomyces pombe, UniProt P04386 1-147; O13310 1-469, limits assumed); test: LACZ-GAL4 reporter in strain BY3161, control of the three-hybrid test
[3] = target: T1, HA-tagged Bot1p (HA3-bot1, …)
[4] = target: T2, HA-tagged Cdc23p (pRep41-HA3cdc23); test: co-purification on glutathione resin from fission yeast extracts, co-expressed
Protocol: (§3) Immunoblot analysis was performed using standard methodology. For co-purification experiments, ade6-704 ura4-D18 leu1-32 h-cells co-expressing HA-tagged Bot1p and GST-tagged Orb6p (FV17p), or cells co-expressing HA-tagged Bot1p and GST alone (FV16p) as a control were cultured, for 15 hr at 32° C. in the absence of thiamine. HA₃-bot1 was moderately expressed from an attenuated nmt1 promoter (10). GST-tagged fusions were constructed using the pESP plasmid (Qiagen), which also contains a nmt1 promoter. Cells were then re-suspended in HB buffer and broken using a FastPrep FP120 bead beater (Savant). Extracts were spun at 15K rpm for 15 min. GST-tagged Orb6 or GST alone was purified using glutathione beads (Molecular Probes).
Glutathione beads were washed three times in HB buffer and then eluted. […]
To confirm this interaction between Bot1p and Orb6p in fission yeast extracts, HA-Bot1p and GST-Orb6p were co-expressed in fission yeast cells, and GST-Orb6p was purified using glutathione-coupled resin. […] Furthermore, neither GST nor GST-Orb6p co-purified with HA-tagged Cdc23p, when co-expressed as an additional control for specificity.

[5] = target: T3, HA-tagged Tea1p (nmt1-HA3tea1); test: glutathione beads carrying GST-Orb6p with co-purified HA-Bot1p, incubated with an extract containing HA-Tea1p
Protocol: as §3
Glutathione beads were washed three times in HB buffer and then eluted. The eluate was run on a 10% polyacrylamide gel, blotted on nitrocellulose, and probed with a primary anti-HA antibody (Covance) or, separately, with a primary anti-GST antibody (Molecular Probes) and with a horseradish peroxidase-conjugated secondary antibody (ECL, Amersham).
To investigate whether Bot1p is able to form a complex with Tea1p and Orb6p, we determined if these proteins co-immunoprecipitate in cell extracts, if they interact in the yeast two-hybrid system, and if they are able to associate in vitro. […]

[6] = target: T4, Orb6p fused to the DNA binding domain …; test: yeast two-hybrid (HIS3 and LACZ reporters)
From the text: as §1, §2

| Binder | binding result [1] | binding result [2] | GST-Orb6p autophosphorylation (in vitro protein kinase activity) [3] | in vitro phosphorylation of Bot1p by Orb6p [3] | binding result [4] | binding result [5] | binding result [6] |
| --- | --- | --- | --- | --- | --- | --- | --- |
| GAL4 activation domain fused to SNF4p (pSE1111, pACT-SNF4) (other, UniProt P12904 1-322, looked up, not shown: large carriers) MKPTQDSQEKVSIEQQLAVESIRKFLNSKTSYDVLPVSYRLIVLDTSLLVKKSLNVLLQNSIVSAPLWDSKTSRFAGLLTTTDFINVIQYYFSNPDKFELVDKLQLDGLKDIERALGVDQLDTASIHPSRPLFEACLKMLESRSGRIPLIDQDEETHREIVVSVLTQYRILKFVALNCRETHFLKIPIGDLNIITQDNMKSCQMTTPVIDVIQMLTQGRVSSVPIIDENGYLINVYEAYDVLGLIKGGIYNDLSLSVGEALMRRSDDFEGVYTCTKNDKLSTIMDNIRKARVHRFFVVDDVGRLVGVLTLSDILKYILLGSN | no binding | no binding |  |  |  |  |  |
| GST-tagged Orb6p expressed in fission yeast (pESP-GSTOrb6+) (enzyme, Schizosaccharomyces pombe, UniProt O13310 1-469, looked up, not shown: a dimerising Fc or GST, also called GST-Orb6p) MDKNDYLHFERNPSLFPKSTLDKVQKTKKYIEHYYKVAVDHAVERNQRRINLEQRLATERGSEERKNRQLRASGEKESQFLRFRRTRLSLEDFSTIKVIGKGAFGEVRLVQKLDTGKIYAMKSLLKTEMFKRDQLAHVKAERDLLVESDSPWVVSLYYAFQDSLYLYLIMEFLPGGDLMTMLINYDTFSEDVTRFYMAECVLAIADVHRMGYIHRDIKPDNILIDRDGHIKLSDFGLSTGFYKQDQSASYMKPRTGNTVKRGQMVDAIWLTMSSKDKMATWKKNRRVMAYSTVGTPDYIAPEIFLQQGYGQDCDWWSLGAIMFECLIGWPPFCSENSHETYRKIINWRETLTFPNDIHLSIEARDLMDRLMTDSEHRLGRGGAIEIMQHPFFTGIDWDHIRETAAPFIPNLKSITDTHYFPVDELEQVPEQPVTQQPASVDPQTLEQTNLAFLGYTYKKFNYLTMKGAL |  |  | The level of GST-Orb6p autophosphorylation was the same for proteins isolated from control and Bot1p-overexpressing cells | Orb6p-associated Bot1p was not phosphorylated in vitro by Orb6p | no binding | no binding |  |
| GAL4 activation domain (GAD) alone (other, UniProt P04386 768-881, looked up, Two-hybrid negative control) ANFNQSGNIADSSLSFTFTNSSNGPNLITTQTNSQALSQPIASSNVHDNFMNNEITASKIDDGNNSKPLSPGWTDQTAYNAFGITTGMFNTTTMDDVYNYLFDDEDTPPNPKKE | no binding |  |  |  |  |  | no binding |
